Here are results for 13 molecules from patent publication US20150031754, “APTAMER MODULATORS OF ESTROGEN RECEPTORS” (RESEARCH FOUNDATION OF STATE UNIVERSITY OF NEW YORK AT …, published 2015).

One series addresses T1, SNAP-tag (control) (UniProt P16455).
T1 sequence: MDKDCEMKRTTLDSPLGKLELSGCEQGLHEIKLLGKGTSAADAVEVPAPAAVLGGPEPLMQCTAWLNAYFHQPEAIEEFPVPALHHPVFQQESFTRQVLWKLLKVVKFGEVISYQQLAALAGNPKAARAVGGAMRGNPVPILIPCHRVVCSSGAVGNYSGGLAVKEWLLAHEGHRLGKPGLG
The series is described as follows: pulldown. To be noted: SNAP-tag control background.

Series [1] addresses T2, Human estrogen receptor alpha (hERα), full-length, unliganded (Homo sapiens, UniProt P03372 P03372:1-595). Put plainly: EMSA; about half shifted below 15 nM; more than two-fold stronger than monomer. To be noted: tags: none stated; baculovirus/insect cells; Invitrogen P2187 or EMD4 Biosciences 330655; label: 32P-CTP internal; two AptER-1(53nt) units on three-way junction of H. marismortui 5S RNA.

Series [2] deals with T2, Human estrogen receptor alpha (hERα), …. Put plainly: EMSA; 35 nM hERα; fully active. To be noted: tags: none stated; baculovirus/insect cells; Invitrogen P2187 or EMD4 Biosciences 330655; label: 32P internal; stem-loop.
Series [3] has the same target. The series is described as follows: EMSA; 200 nM ERα; two shifted bands. The note with it: tags: none stated; baculovirus/insect cells; Invitrogen P2187 or EMD4 Biosciences 330655; label: labeled.
Series [4] deals with Human estrogen receptor beta (hERβ) (Homo sapiens, UniProt Q92731 Q92731:1-530). The series is described as follows: EMSA; affinity similar to hERα. The note with it: tags: none stated; baculovirus/insect cells; EMD4 Biosciences 330657; label: 32P-CTP internal. As for the experimental part:
FIGS. 9A-B illustrate the binding specificity of AptER-1, -2 and -3. […] Radiolabeled AptER-1, -2 and -3 (0.1 nM) were incubated with 20 nM hERα, 200 nM hERβ, or 200 μg/ml HeLa nuclear extract (NE). Binding reactions were resolved on a 4.8% polyacrylamide gel (acrylamide:bis-acrylamide=37.5:1) in ¼×TBE buffer. […] Radiolabeled AptER-1, -2 and -3 (0.1 nM) were incubated with 20 nM or 40 nM hERα, or hERβ. Binding reactions were resolved as described above.
To examine the binding specificity of the first set of isolated aptamers, AptER-1, -2 and -3, proteins were presented at high concentrations in ESMA, including hERβ at 200 nM or HeLa nuclear extract at 200 μg/ml, which should allow detection of weak binding activity. […] This was confirmed in a second EMSA using the two ER subtypes at the same concentrations (FIG. 9B). Furthermore, the binding affinities to the two forms were very close, as shown in the EMSA, and this was more carefully compared with the binding curves of AptER-1 (FIG. 8A). […] In the presence of HeLa nuclear extract (FIG. 9A), no specific shifted band could be observed.

Series [5] deals with T2, Human estrogen receptor alpha (hERα), …. Put plainly: filter; same buffer, 37 C; Hill n>1. To be noted: tags: none stated; baculovirus/insect cells; Invitrogen P2187 or EMD4 Biosciences 330655; label: 32P-CTP internal. As for the experimental part:
The dissociation constant (Kd) of the AptER-1, -2, -3, and -4 were measured using a nitrocellulose filter binding assay. A constant trace amount of [γ-³²P]-CTP incorporated RNA aptamer (˜0.1 nM) was titrated with increasing amounts of the target protein ranging from 5 to 150 nM. The binding activity at each concentration was determined as % binding, by calculating the radioactive signal of the RNA-protein complex retained on the filter as a percentage of the signal at the highest protein concentration (saturated) used. The assays were performed in triplicates for each aptamer. A binding curve was constructed using Sigma Plot 9.0.1, with average binding affinity (% binding) as a function of the protein concentration using a sigmoidal equation (Hill equation, 3 parameters). Apparent Kd was the protein concentration where half of the maximal binding activity was achieved, and were calculated from the data points by using Sigma Plot. […] The first 3 aptamers were isolated in in vitro selection I, and their affinity rank explains the relative abundance in the final selected library. More specifically, it is believed that AptER-1 dominated the final selected pool because it was the strongest binder. AptER-4 was the weakest binder, and would not have been easily identified in the selection I libraries.

Series [6] shares this target. Put plainly: EMSA; 200 nM ERα; one complex; BSA and yeast RNA competitors. The note with it: tags: none stated; baculovirus/insect cells; Invitrogen P2187 or EMD4 Biosciences 330655; label: labeled.
Another series deals with hERα DNA-binding domain (Homo sapiens, UniProt P03372 P03372:180-268). The series is described as follows: EMSA; 100-400 nM DBD, 5 nM DNA. To be noted: tags: N-terminal His6; E. coli BL21(DE3); label: 5'-32P; hairpin with GAAA tetraloop, ERE in stem. As for the experimental part: (§1) No binding activity to RNase inhibitor (control) or DBD & RNase inhibitor was detected. The binding reactions were resolved on the same type of gel as above. […] End-radiolabeled ERE-50mer at 5 nM was mixed with 100× or 400× more concentrated unlabeled competitors ERE-50mer, AptER-1, -2 and -3 RNA or an early generation pool in hERα selection G1 before addition of hERα (40 nM). Only cold ERE-50mer disrupted radioactive ERE-hERα complex.
Sequence of hERα DNA-binding domain (P03372 180-268, one chain of several): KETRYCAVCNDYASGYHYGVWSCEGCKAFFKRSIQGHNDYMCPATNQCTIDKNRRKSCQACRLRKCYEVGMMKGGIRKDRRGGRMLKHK
Class I aptamers bound with similar affinities to both subtypes of ER, which share the highest homology (96%) in the DBD. This raised the possibility that the target site of Class I aptamers was located within the DBD. Whether the aptamers bind to the DBD was tested in binding assays using a recombinant hERα-DBD. It was expressed as a His₆-tagged fusion protein in E. coli BL21 (DE3) and purified as described in the Materials and Methods. To verify its ERE-binding capability, a DNA EMSA was performed. DNA oligo ERE-50mer contains a GAAA tetra loop, which forces the oligo to form a hairpin. A copy of Xenopus laevis vitellogenin A2 ERE (5′-[…]-3′, SEQ ID NO: 73) was presented in the stem of a hairpin. […] However, in both EMSA (FIG. 11B) and filter-binding assay, no association was detected between AptER-1 and DBD. […]

Series [7] has as its target T2, Human estrogen receptor alpha (hERα), …. Put plainly: EMSA; not competed by AptER-1, -2, -3 or -4; competed by cold ERE. The note with it: tags: none stated; baculovirus/insect cells; Invitrogen P2187 or EMD4 Biosciences 330655; label: 5'-32P; hairpin with GAAA tetraloop, ERE in stem. The protocol:
as §1
Whether the aptamers bind to the DNA binding site on the full-length hERα was tested in cross-competition assays using ERE-50mer as a specific competitor. Radiolabeled ERE-50mer was competed with 100× or 400× more concentrated nonradioactive competitors ERE-50mer, AptER-1, -2, -3 or Generation 1 pool of hERα selection G1 (see Example 1). Radiolabeled ERE-50mer at 5 nM was mixed with the competitors before the addition of hERα at 50 nM. The binding reaction was set up as described in the Materials and Methods, and electrophorised in a 4.8% polyacrylamide gel (acrylamide:bis-acrylamide=50:1) in ½ ΔTGB. ERE-50mer served as a positive control of competition, whereas the G1 pool was a negative control. […] This agreed with the result from a second cross-competition assay between radiolabeled AptER-1 and unlabeled ERE-50mer for binding to human ERα (FIG. 9A).

The target is the same in series [8]. Put plainly: EMSA; 25 nM hERα; no difference from sB63. To be noted: tags: none stated; baculovirus/insect cells; Invitrogen P2187 or EMD4 Biosciences 330655; label: 32P internal.
For series [9] the target is unchanged. The series is described as follows: EMSA; 10 mM MgCl2, 37 C binding. The note with it: tags: none stated; baculovirus/insect cells; Invitrogen P2187 or EMD4 Biosciences 330655; label: 32P internal; stem-loop.
Series [10] shares this target. The series is described as follows: EMSA; no binding; method EMSA or filter. The note with it: tags: none stated; baculovirus/insect cells; Invitrogen P2187 or EMD4 Biosciences 330655.

T2 sequence (P03372 whole entry, one chain of several): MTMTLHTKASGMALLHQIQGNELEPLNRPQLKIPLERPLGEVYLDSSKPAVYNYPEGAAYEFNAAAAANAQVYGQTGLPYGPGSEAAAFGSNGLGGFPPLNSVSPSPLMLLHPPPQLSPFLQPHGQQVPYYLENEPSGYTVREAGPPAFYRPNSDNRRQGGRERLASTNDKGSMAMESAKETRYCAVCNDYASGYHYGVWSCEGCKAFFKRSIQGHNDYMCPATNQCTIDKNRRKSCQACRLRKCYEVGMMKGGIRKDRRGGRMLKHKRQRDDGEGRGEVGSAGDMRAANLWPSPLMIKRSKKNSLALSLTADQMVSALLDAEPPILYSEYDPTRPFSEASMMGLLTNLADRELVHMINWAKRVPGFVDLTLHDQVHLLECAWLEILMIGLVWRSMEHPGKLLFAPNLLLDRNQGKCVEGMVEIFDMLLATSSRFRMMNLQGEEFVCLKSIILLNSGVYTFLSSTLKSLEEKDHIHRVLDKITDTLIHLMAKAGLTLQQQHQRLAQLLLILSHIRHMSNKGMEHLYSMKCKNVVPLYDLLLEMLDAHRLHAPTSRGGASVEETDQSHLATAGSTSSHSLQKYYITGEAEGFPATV
Sequence of Human estrogen receptor beta (hERβ) (Q92731 whole entry, one chain of several): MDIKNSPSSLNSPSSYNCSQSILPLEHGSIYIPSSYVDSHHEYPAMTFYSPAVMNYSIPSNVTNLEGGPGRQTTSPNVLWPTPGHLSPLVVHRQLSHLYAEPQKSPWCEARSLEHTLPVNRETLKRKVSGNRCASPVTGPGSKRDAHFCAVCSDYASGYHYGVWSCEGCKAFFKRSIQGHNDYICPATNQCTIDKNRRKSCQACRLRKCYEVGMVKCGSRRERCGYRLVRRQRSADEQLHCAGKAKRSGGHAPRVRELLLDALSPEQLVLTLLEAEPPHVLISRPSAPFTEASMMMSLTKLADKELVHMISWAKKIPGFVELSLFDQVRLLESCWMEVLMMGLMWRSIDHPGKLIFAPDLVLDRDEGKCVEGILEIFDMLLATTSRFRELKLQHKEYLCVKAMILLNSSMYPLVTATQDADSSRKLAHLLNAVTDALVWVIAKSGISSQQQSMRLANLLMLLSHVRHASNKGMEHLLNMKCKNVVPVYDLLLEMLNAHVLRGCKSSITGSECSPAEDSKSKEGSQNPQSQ

Consider “GCGUGACGGGCACCGCGAACAAAACGCAAGACAGAGUGCCGACAAGAGCACUACAAGCCCGUCCAUACUCCGGCACCGCGAACAAAACGCAAGACAGAGUGCCGACAAGAGCACUAACAGCCGGAGGCGCUU [AptER-1x2 (expressed dimer)]”, for which the binding signal (fold (control reference)) with SNAP-tag (control) came to 1.

B1: AptER-1x2(138nt) dimer (ssRNA)
RNA: GGAUCCGUGACGGGCACCGCGAACAAAACGCAAGACAGAGUGCCGACAAGAGCACUACAAGCCCGUCCAUACUCCGGCACCGCGAACAAAACGCAAGACAGAGUGCCGACAAGAGCACUAACAGCCGGAGGCGGAUCC
Regarding B1, in series [1], the Kd was < 15 nM.

B2: AptER-1(53nt) (ssRNA)
RNA: GGGCACCGCGAACAAAACGCAAGACAGAGUGCCGACAAGAGCACUACAAGCCC
Regarding B2, the binding result in series [2] is listed as “binds”.

B3: ERL5-5 (ssRNA)
RNA: GGGAGAAUUCAACUGCCAUCUACAGAAGGACCGCGAGGGUAAAAACCACGCACGACAGAGUAUAACAAAACAACUACAAGCUUCUGGACUCGGU
In the case of B3, the binding result in series [3] is “binds”.

B4: AptER-2 (ssRNA)
RNA: GGGAGAAUUCAACUGCCAUCUAGGCACACGCGAGAUAGAGCGAGGCCUCCAAAAAUGGCCACGCCAGGAAGCAAGUACUACAAGCUUCUGGACUCGGU
Regarding B4, the binding result in series [4] is on record as “binds”. In addition, in [5], the Kd turned out to be 21 nM.

B5: ERL5-1 (ssRNA)
RNA: GGGAGAAUUCAACUGCCAUCUACAAGCCAAGCAAGCGAGCAAAAAACGCGAGCAUCCGAGCUCCAAGACGUACUACAAGCUUCUGGACUCGGU
On to B5, for which the binding result in series [6] was “binds”.

B6: ERE-50mer (structured_DNA)
DNA: AGTCAGGTCACAGTGACCTGATCGAAAGATCAGGTCACTGTGACCTGACT
B6: the binding result (in the series with hERα DNA-binding domain; in series [7]) was “binds” throughout.

B7: ERL5-4 (ssRNA)
RNA: GGGAGAAUUCAACUGCCAUCUAACAGCCAAGUAAGCGACAACGACAAUCAAUGACGCGAACAAUCCGAAAGAACUACAAGCUUCUGGACUCGGU
For B7, the binding result in series [3] was “binds”.

B8: sB65 (65nt truncated clone B65) (ssRNA)
RNA: GGGCAGAAGCACCGCGAACAAAACGCAAGACAGAGUGCCGACAAGAGCACUACAAGCUUCUGCCC
With B8, the binding result in [8] is “binds”.

B9: AptER-1(65nt) (sB63) (ssRNA)
RNA: GGGCAGAGGCACCGCGAACAAAACGCAAGACAGAGUGCCGACAAGAGCACUACAAGCUUCUGCCC
For B9, the Kd in [9] was ~30 nM.

B10: AptER-3 (ssRNA)
RNA: GGGAGAAUUCAACUGCCAUCUAGGCGACCCAGGGCCGGGACGCAAAGCAGCCAAAACAGACGGCCCCAGUCAGGGAGUUACUACAAGCUUCUGGACUCGGU
Regarding B10, the binding result in series [4] is given as “binds”. In addition, binding in series [5] was put at a Kd of 30 nM.

B11: ERL5-6 (ssRNA)
RNA: GGGAGAAUUCAACUGCCAUCUAAAUGAAAGGACGCACACUACGUGUCCUACAAACACAGAAACAAAAACCGAACUACAAGCUUCUGGACUCGGU
In the case of B11, in series [3], the binding result is given as “binds”.

B12: AptER-1 34nt version (ssRNA)
RNA: GGGCACCGCGAACAAAACGCAAGACAGAGUGCCC
Take B12: in series [10], the binding result is “no binding”.
